Source: patent US20120058906A1 (published 2012)

Tests used:
[1] = molecular target: T1, rHuman EGF R/Fc Chimera, CF (R&D Systems Cat#344-ER) (human, UniProt P00533 25-645); experiment: ECL (MSD multi-spot), antigen spotted on plate; Fab 10 nM; blank 550
T1 construct: Bought protein; also called epidermal growth factor receptor; Fc part of the bought chimera not given

[2] = molecular target: T2, Recombinant Human DLL4 (R&D Systems Cat#1506-D4/CF) (human, UniProt Q9NR61 27-524); experiment: as above
T2 construct: Bought protein; also called rHuman DLL4; delta-like protein 4

[3] = molecular target: T3, rHuman CD44/Fc Chimera, CF (R&D Systems Cat#3660-CD) (human, UniProt P16070 21-220); experiment: as above
T3 construct: Bought protein; Fc part of the bought chimera not given

[4] = molecular target: T4, rHuman IGF-1 sR (IGF-1 sR), CF (R&D Systems Cat#391-GR) (human, UniProt P08069 31-932); experiment: as above
T4 construct: Bought soluble receptor; also called insulin-like growth factor-1 soluble receptor; IGF-R1

[5] = molecular target: T5, rHuman P-Cadherin/Fc Chimera, CF (R&D Systems Cat#861-PC) (human, UniProt P22223 108-654); experiment: as above
T5 construct: Bought protein; also called CDH3; Fc part of the bought chimera not given

[6] = molecular target: T6, rHuman ErbB2/Fc Chimera, CF (R&D Systems Cat#1129-ER) (human, UniProt P04626 23-652); experiment: as above
T6 construct: Bought protein; also called HER2/neu; human epidermal growth factor 2 receptor; Fc part of the bought chimera not given

[7] = molecular target: T7, rHuman Erythropoietin R/Fc Chimera, CF (R&D Systems Cat#963-ER) (human, UniProt P19235 25-250); experiment: as above
T7 construct: Bought protein; also called EPO R/Fc; Epo R; Fc part of the bought chimera not given
T7 sequence: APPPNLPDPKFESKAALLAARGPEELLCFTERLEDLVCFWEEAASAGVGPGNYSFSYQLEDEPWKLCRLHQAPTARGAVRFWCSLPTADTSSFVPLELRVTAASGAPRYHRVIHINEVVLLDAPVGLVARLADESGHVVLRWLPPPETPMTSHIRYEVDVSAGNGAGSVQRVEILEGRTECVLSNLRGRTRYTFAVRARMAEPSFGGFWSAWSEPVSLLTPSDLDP

[8] = molecular target: T8, rHuman Notch-1/Fc Chimera, CF (R&D Systems Cat#3647-TK) (human, UniProt P46531 19-526); experiment: as above
T8 construct: Bought protein; Fc part of the bought chimera not given

[9] = molecular target: T9, rHuman HGF R/c-MET/Fc Chimera, CF (R&D Systems Cat#358-MT/CF) (human, UniProt P08581 25-932); experiment: as above
T9 construct: Bought protein; also called HGF R/Fc; hepatocyte growth factor receptor; Fc part of the bought chimera not given

[10] = molecular target: T1, rHuman EGF R/Fc Chimera, CF (R&D …); experiment: ECL (MSD multi-spot), antigen spotted on plate; Fab 1000 nM; blank 760
[11] = molecular target: T2, Recombinant Human DLL4 (R&D Systems …); experiment: as above
[12] = molecular target: T3, rHuman CD44/Fc Chimera, CF (R&D Systems …); experiment: as above
[13] = molecular target: T4, rHuman IGF-1 sR (IGF-1 sR), CF (R&D …); experiment: as above
[14] = molecular target: T5, rHuman P-Cadherin/Fc Chimera, CF (R&D …); experiment: as above
[15] = molecular target: T6, rHuman ErbB2/Fc Chimera, CF (R&D …); experiment: as above
[16] = molecular target: T7, rHuman Erythropoietin R/Fc Chimera, CF …; experiment: as above
[17] = molecular target: T8, rHuman Notch-1/Fc Chimera, CF (R&D …); experiment: as above
[18] = molecular target: T9, rHuman HGF R/c-MET/Fc Chimera, CF (R&D …); experiment: as above
[19] = molecular target: T10, rHuman HGF R/c-MET/Fc Chimera, CF (R&D Systems Cat#358-MT/CF) (human, UniProt P08581 25-932); experiment: ECL (MSD Multi-Spot) binding, antigen spotted on plate; Fab 1000 nM
T10 construct: Bought Fc chimera; also called HGF R/Fc; hepatocyte growth factor receptor; Fc part of the bought chimera not given

[20] = molecular target: T11, rHuman Notch-1/Fc Chimera, CF (R&D Systems Cat#3647-TK) (human, UniProt P46531 19-526); experiment: as above
T11 construct: Bought Fc chimera; Fc part of the bought chimera not given

[21] = molecular target: T12, Recombinant Human DLL4 (R&D Systems Cat#1506-D4/CF) (human, UniProt Q9NR61 27-524); experiment: as above
T12 construct: Bought recombinant protein; also called delta-like protein 4

[22] = molecular target: T13, rHuman CD44/Fc Chimera, CF (R&D Systems Cat#3660-CD) (human, UniProt P16070 21-220); experiment: as above
T13 construct: Bought Fc chimera; Fc part of the bought chimera not given

[23] = molecular target: T14, rHuman P-Cadherin/Fc Chimera, CF (R&D Systems Cat#861-PC) (human, UniProt P22223 108-654); experiment: as above
T14 construct: Bought Fc chimera; Fc part of the bought chimera not given

[24] = molecular target: T15, rHuman EGF R/Fc Chimera, CF (R&D Systems Cat#344-ER) (human, UniProt P00533 25-645); experiment: as above
T15 construct: Bought Fc chimera; also called epidermal growth factor receptor; Fc part of the bought chimera not given

[25] = molecular target: T16, rHuman Erythropoietin R/Fc Chimera, CF (R&D Systems Cat#963-ER) (human, UniProt P19235 25-250); experiment: as above
T16 construct: Bought Fc chimera; also called EPO R/Fc; erythropoietin receptor; Fc part of the bought chimera not given
T16 sequence: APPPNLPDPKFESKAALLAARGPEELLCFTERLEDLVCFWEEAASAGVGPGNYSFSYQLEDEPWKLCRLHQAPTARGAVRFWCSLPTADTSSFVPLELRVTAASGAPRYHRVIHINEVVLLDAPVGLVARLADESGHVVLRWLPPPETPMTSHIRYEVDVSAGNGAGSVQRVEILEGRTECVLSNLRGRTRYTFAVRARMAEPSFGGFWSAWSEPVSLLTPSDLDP

[26] = molecular target: T17, rHuman IGF-1 sR, CF (R&D Systems Cat#391-GR) (human, UniProt P08069 31-932); experiment: as above
T17 construct: Bought soluble receptor; also called insulin-like growth factor-1 soluble receptor; IGF-R1

[27] = molecular target: T18, rHuman ErbB2/Fc Chimera, CF (R&D Systems Cat#1129-ER) (human, UniProt P04626 23-652); experiment: as above
T18 construct: Bought Fc chimera; also called human epidermal growth factor 2 receptor; HER2/neu; Fc part of the bought chimera not given

[28] = molecular target: T10, rHuman HGF R/c-MET/Fc Chimera, CF (R&D …); experiment: ECL (MSD Multi-Spot) binding, antigen spotted on plate; Fab 10 nM
[29] = molecular target: T11, rHuman Notch-1/Fc Chimera, CF (R&D …); experiment: as above
[30] = molecular target: T12, Recombinant Human DLL4 (R&D Systems …); experiment: as above
[31] = molecular target: T13, rHuman CD44/Fc Chimera, CF (R&D Systems …); experiment: as above
[32] = molecular target: T14, rHuman P-Cadherin/Fc Chimera, CF (R&D …); experiment: as above
[33] = molecular target: T15, rHuman EGF R/Fc Chimera, CF (R&D …); experiment: as above
[34] = molecular target: T16, rHuman Erythropoietin R/Fc Chimera, CF …; experiment: as above
[35] = molecular target: T17, rHuman IGF-1 sR, CF (R&D Systems …); experiment: as above
[36] = molecular target: T18, rHuman ErbB2/Fc Chimera, CF (R&D …); experiment: as above
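Also: blank spot per well as comparator with Hit at signal to blank ratio of 4 or more.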

B1: Fab VH1-46_IGHD6-6*01_IGHJ1*01_S103P & L6_IGKJ1*01 (Fab, V domains shown)
VH: QVQLVQSGAEVKKPGASVKVSCKASGYTFTSYYMHWVRQAPGQGLEWMGIINPSGGSTSYAQKFQGRVTMTRDTSTSTVYMELSSLRSEDTAVYYCAREEYSPSSAEYFQHWGQGTLVTVSS
VL: not shown
notes: Expressed in E. coli as a Fab; CH1 with Flag and His tags comes from Plasmid A and the kappa CL from Plasmid C; also called IGHV1-46*01; IGHJ1*01 S103P with IGKV3-11*01
[1]
  ECL signal: 773
[2]
  ECL signal: 55100
[3]
  ECL signal: 746
[4]
  ECL signal: 814
[5]
  ECL signal: 846
[6]
  ECL signal: 847
[7]
  ECL signal: 802
[8]
  ECL signal: 792
[9]
  ECL signal: 859
[10]
  ECL signal: 1910
[11]
  ECL signal: 29800
[12]
  ECL signal: 1220
[13]
  ECL signal: 1340
[14]
  ECL signal: 1380
[15]
  ECL signal: 1280
[16]
  ECL signal: 1510
[17]
  ECL signal: 1210
[18]
  ECL signal: 1360

B2: Fab VH1-46_IGHD6-6*01_IGHJ1*01_S102A & L6_IGKJ1*01 (Fab, V domains shown)
VH: QVQLVQSGAEVKKPGASVKVSCKASGYTFTSYYMHWVRQAPGQGLEWMGIINPSGGSTSYAQKFQGRVTMTRDTSTSTVYMELSSLRSEDTAVYYCAREEYASSSAEYFQHWGQGTLVTVSS
VL: not shown
notes: Fab made in E. coli; The heavy chain also carries the CH1 with Flag and His tags of Plasmid A, and the light chain the kappa constant region of Plasmid C
[19]
  ECL signal: 1660
[20]
  ECL signal: 1250
[21]
  ECL signal: 22200
[22]
  ECL signal: 1090
[23]
  ECL signal: 1500
[24]
  ECL signal: 1600
[25]
  ECL signal: 1320
[26]
  ECL signal: 1170
[27]
  ECL signal: 946
[28]
  ECL signal: 698
[29]
  ECL signal: 647
[30]
  ECL signal: 38700
[31]
  ECL signal: 681
[32]
  ECL signal: 691
[33]
  ECL signal: 677
[34]
  ECL signal: 761
[35]
  ECL signal: 657
[36]
  ECL signal: 670
